Patent US20110300113A1, “Death Receptor CD95 Controls Neurogenesis of Adult Neural Stem Cells in Vivo and in Vitro” (DEUTSCHES KREBSFORSCHUNGSZENTRUM, priority 2006, published 2011)

Tests used:
[1] = test system: human neural progenitor cells; experiment: Neuronal differentiation (β-III-tubulin) of human neural progenitor cells after growth factor removal; assay type: cell-based
Experimental: Immunostainings. Immunohistochemistry and Immunocytochemistry were performed as previously described. Primary antibodies used were anti GFP (chicken) (Ayes Labs) 1:1000, anti NeuN (mouse), (Chemicon) 1:200, anti β-III-tubulin (mouse) (Chemicon 1:200), anti GFAP (mouse) (Chemicon 1:200), active-β-Catenin (mouse) (P-Ser37 or P-Thr41; 1:800) (Upstate), phosphorylated GSK3β (P-Ser9-GSK3β, 1:1000). The mouse Pax6 antibody developed by A. Kawakami was obtained from the Developmental Studies Hybridoma Bank developed under auspices of the NICHD and maintained by The University of Iowa, Department of Biological Sciences, Iowa City, Iowa 52242. Secondary antibodies used were goat anti-rabbit alexa 488 (Molecular Probes) 1:500, goat anti-mouse rhodamine X (Dianova) 1:200, Dapi (Sigma) 1:3000, donkey anti-chicken FITC (Dianova) 1:200.
Human neural progenitor generation and culture. The human ES cell line H9.2 was cultivated on mitotically inactivated mouse embryonic fibroblasts (MEFs) in Knockout Dulbecco's Modified Eagle Medium (KO-DMEM, Gibco) containing 20% Knockout Serum Replacement, 1% non-essential amino acids, 1 mM I-glutamine, 0.1 mM β-mercaptoethanol (all from Gibco), and 4 ng/ml human basic fibroblast growth factor (FGF-2, Invitrogen). Cells were routinely passaged every four days by treatment with 100 units collagenase IV (Gibco) for one hour. […]

mouse adult SVZ NSCs = experiment: Gene expression by quantitative real-time PCR in adult SVZ NSCs; assay type: cell-based; conditions: 48 h after stimulation
Experimental: Real-time Quantitative PCR. 24 h cells after plating cells were stimulated with 1 activation unit of CD95L-T4. After 48 h RNA was isolated using the RNeasy Mini Kit (Qiagen). Real-time quantitative PCR was carried out using Sybr Green core kits (Eurogentec) and Uracil-N-glycosylase (Eurogentec). For determining CD95L induction after global ischemia, the hippocampi were dissected out and stored in RNAlater reagent (Ambion). RNA was extracted using the RNeasy Mini Kit (Qiagen). Real-time quantitative PCR was carried out using Sybr Green core kits (Eurogentec) and Uracil-N-glycosylase (Eurogentec). Primers used for quantitative real-time PCR were designed using Primer 3 software (http://fokker.wi.mit.edu/cgi-bin/primer3/primer3_www.cgi).

NSCs = experiment: Apoptosis and caspase activity in NSCs; assay type: cell-based, mouse
Experimental: For staining of intracellular markers, cells were harvested, fixed with 4% PFA for 10 min on ice, washed and permeabilized using 0.1% Saponin (Sigma-Aldrich) in PBS with 10% FCS (SAP). Cells were incubated with primary antibody or isotype for 30 min on ice. Cells were washed three time with SAP and incubated with secondary antibody for 30 min on ice. Cells were washed again three times with SAP and analysed. Antibodies used were: anti β-III-tubulin (Chemicon) 1:100, anti GFAP (Chemicon) 1:100 and isotype mouse IgG1 (Sigma) 1:20. Secondary antibody was goat anti-mouse PE 1:100 (Dianova). To quantify DNA fragmentation, cells detached with trypsin were centrifuged, washed and fixed with 70% ethanol at −20° C. for 1 h. Fixed cells were resuspended in a hypotonic lysis buffer (0.1% sodium citrate and 0.1% Triton X-100) containing […] of propidium iodide, incubated at 4° C. overnight. After final washings, all samples were analysed using a FACS-Calibur (Becton Dickinson) and CellQuest Software (Becton Dickinson).
Caspase Activity Assay. Apostat Intracellular Caspase Detection Caspase Activity Assay was purchased from R&D Systems. Assay was performed according to the manufacturers' instructions and analyzed using a FACSCalibur (Becton Dickinson) and CellQuest software (Becton Dickinson).

B1: CD95L: the ligand for CD95 (APO-1/Fas) (protein, listed as Homo sapiens)
chain: MQQPFNYPYPQIYWVDSSASSPWAPPGTVLPCPTSVPRRPGQRRPPPPPPPPPLPPPPPPPPLPPLPLPPLKKRGNHSTGLCLLVMFFMVLVALVGLGLGMFQLFHLQKELAELRESTSQMHTASSLEKQIGHPSPPPEKKELRKVAHLTGKSNSRSMPLEWEDTYGIVLLSGVKYKKGGLVINETGLYFVYSKVYFRGQSCNNLPLSHKVYMRNSKYPQDLVMMEGKMMSYCTTGQMWARSSYLGAVFNLTSADHLYVNVSELSLVNFEESQTFFGLYKL
modifications: CHAIN (1)..(281) This feature is the amino acid sequence for CD95L protein. CD95L is a ligand for CD95. CD95 is APO-1/Fas and a member of the tumor necrosis factor receptor superfamily.
number of neurons / β-III-tubulin positive cells [1]: strikingly increased number of neurons
Neurogenin (Ngn1) expression (mouse adult SVZ NSCs): much higher
apoptosis (NSCs): could not detect apoptosis
